From the nanobody polyreactivity screen of Harvey et al. (2022)

Test: yeast display, Sf9 membrane polyspecificity reagent, FACS + sequencing; frameworks hold sequencing errors
Method in brief: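 After 36–48 hours of galactose induction, yeast (Saccharomyces cerevisiae BJ5465) displaying a synthetic nanobody library were stained at 4 °C for 1 hour with 10% biotinylated, detergent-solubilized Sf9 membrane reagent. Streptavidin microbeads enriched the stained cells before FACS sorting into low and high (top ~1%) gates on anti-HA and streptavidin fluorescence. Each clone's polyreactivity label reflects its gate of origin.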

Row | Sequence | polyreactivity (PSR sort gate)
1 | QVQLVESRGGLVQAGGSLRLSCAASGRIFLRNAMVWYRQAPGKERELVASIDRSGGSTYYADSVKGRFTISRDNAKNTVYLQMNSLKPEDTAVYYCAAAYWYLYYYWGQGTQVTVAS | low polyreactivity
2 | QVQLVESRGGLVQAGGSLRLSCAASGRIFRYYAMGWYRQAPGKERELVAAITWRGGNTRYADSVKGRFTISRDNAKNTVYLPMNSLKTEDTAVYYCAARGQSAYSIWSYYYWGQGTQVTVSS | high polyreactivity
3 | QVQLVESRGGLVQAGGSLRLSCAASGRIFWVNAMGWYRQAPGKERELVAVISRGGSTTYADSVKGRFTISRDNAKNTVYLQMNSLKPEDTAVYYCAADAYRHAFLYYGYDYWGQGTQVTVSS | low polyreactivity
4 | QVQLVESRGGLVQAGGSLRLSCAASGRIYNYYEMGWYRQAHGKESELVAAITWRGGTTYYADSVKGRFTISRDNAKNTVYLQMNSLKPEDTAVYYCATTPRSYRFPPPVGYGYWGQGTQVTVSS | high polyreactivity
5 | QVQLVESRGGLVQAGGSLRLSCAASGRTLTAYAMGWYRQAPGKERELVDDISFGGGTTYYADSVKGRFTISSDNAKNTVYLQMNSLKPEDTAVYYCAAANYVDIWDFYWFDDYWGQGTQVTVSS | high polyreactivity
6 | QVQLVESRGGLVQAGGSLRLSCAASGRTVRRYAMGWYRQAAGKARELVASISRGSSTNYADSVKGRFTSSRDNAKNTGYLQMNSLKPEHTAVYYCAALGWSARYRYDYWGQGTQVTVSS | high polyreactivity
7 | QVQLVESRGGLVQAGGSLRLSCAASGSIFSYYPMGWYRQAPGKERELVAAISSRGGSTYYADSVKGRFTISRDNAKNTFYLQMNCLKPEDTAVYYCDDEWTSWFGVTYDYWGQGTQVTVSS | high polyreactivity
8 | QVQLVESRGGLVQAGGSLRLSCAASGSNFTLYAMGWYRQAPGKERELGATITISGGGTYYADSVKGRFTISRDNAKNTVYLQMNSLKPEDTAVYYCAVKSIVRRKGYTYYRYDYWGQGTQVTVSS | high polyreactivity
9 | QVQLVESRGGLVQAGGSLRLSCAASGSTFFHYAMGWYRQAPGKDRELVAAIDSNGGSTYYADSVKGRFTISRDNAKNTVYLPMNSLKPEDTAVYYCAADDLAEFEYDYWGQGTQVTVSS | low polyreactivity
10 | QVQLVESRGGLVQAGGSLRLSCAASGSTFGWYAMGWYRQAPGKERELVASITSGGRTNYADSVKGRFTISRDNAKITVYLQMNSLKPEDTAVYYCAKRVYGSYSLYDYWGQGTQVNVSS | low polyreactivity
11 | QVQLVESRGGLVQAGGSLRLSCAASGSTFKRYTMGWYRQAPGKESELVAAISTSSGSTYYADCVKGRFTISRDNAKNTVYLQMNSLKPDDSAVYYCAAVRHRQSYPKYNYWGQGTQVTVSS | high polyreactivity
12 | QVQLVESRGGLVQAGGSLRLSCAASGTTINFYPMGWYRQAPGKERELVAAIRVSSGSTYYADSVKGRFTISRDNAKNNVYLQMNSLKPEDTAVYYCAAFLKDRSPRDGYDYWGQGSQVTVSS | high polyreactivity
13 | QVQLVESRGGLVQAGGSLRLSCAASGYIINAYARGWYRQAPGKERELVAAISWSSDSTYYADSVKGRFTISRDIAKNTVYLQMNSLKPEVTAVYYCAAPYITPYGTYVFSSDYWGQGTQVTVSS | low polyreactivity
14 | QVQLVESRGGLVQAGGSLRLSCAASGYILWRYAMGWYRQAPGKERELVASISSGVSTNYADSVKGRFTISRDNAKNTVYLQMYSLKPEDTAVYYCKTGRWLLGSMEYWGQGTEVTVSS | low polyreactivity
15 | QVQLVESRGGLVQAGGSLRLSCAASGYTFYGYAMGWYRQAPGKERELVAAISGSGGSTYYADSVKGRFTISRDNAKNTVYLQMNSLKREDTAVYYCNKARYAIYRGDGYDYWGQGTQVTVSS | high polyreactivity
16 | QVQLVESRGGLVQAGGSLRLSCAATGFTIYYYAMGWYRQAPGKERELVAAITGSGGSTYYADSVKGRFTISRDNAKNTVYLQMNSLKPEDTAVYYCARRYQVGWYYKYDYWGQGTQVTVSS | high polyreactivity
17 | QVQLVESRGGLVQAGGSLRLSCADSGITFYVYTMGWNIKAPGKQRDLVASISGRGGSTYYAVSVKGRFTISRDNAKNTVYLQMNSLKPEDTAVYYCEAYRLRFWSMDYWGQGTQVTGSS | high polyreactivity
18 | QVQLVESRGGLVQAGGSLRLSCPASGSIFPDNAMGWYRQAPGKERELDAAITRGGSTYYADSEKGRFTISRDNAKNTVYLQMNSLKPEDTAVYYCAVVRYYVSMDNWGQGTQVTVSS | high polyreactivity
19 | QVQLVESRGGLVQAGGSLRLSCSASGRIFTTYAMGWYRQAPGKEREFVAAISRSGGSTYYADSVKGRFTISRDNAKNTVYLQMNSLKPEDTAVYYCAAVPTSNSLRSSFSYWGQGSQVTVSS | high polyreactivity
20 | QVQLVESRGGLVQAGGSLSLSCAASGSTYNASAMGWYRQATGKERELVAAISSGGSTYYADSVKGRFTISRDNANNTVYLQMNSLKPEDTAVLYCAAVLTGHYYRFDYWGQGTQVNVSS | low polyreactivity
21 | QVQLVESRGGLVQAGGTLRLSCAASGSTFAVNAMGWYRQAPGKERELVATITGSGGSTYYADSVKGRFTISRDNAKNTVYLQLNSLKPEDTAVYYCATDLVFDKRYWYDYWGQGTQVTVSS | low polyreactivity
22 | QVQLVESRGGVVQAGGSLRLRCAASGRTFYRNVMGWSRQAPGKERELVAAITGDGGSTYYADSVKGRFTISRDNAKNTVYVQMNSQKAEVTAVYYCAASVYPQKRFFYWGHGTQVTVSS | high polyreactivity

Row | Sequence | polyreactivity (PSR sort gate)
23 | QVQLVESRGVLVQAGGSLRLSCAASGSIFYFYAMGWYRQAPGKERELVAAISWSGGSTYYADSVKGRFTISRDTSKNTVYLQMHSLKPEDTPVYYCNAADYWYWENDYWGQGTQVTVSS | low polyreactivity
24 | QVQLVESRGVLVQAGGSLRLSCAASGSTFTGYAMGWYRQAPGKERELVAGITGSGGSTYYADSVMGRFTISRDNAKITVYFQMNSLKPVDTAVYYCAAACWYHYVWLDYFWGQGTQVTVSS | low polyreactivity
25 | QVQLVESRGVLVQAGGSLRLSCAGSGSTILRYALGWYRQAPGKERELVAAINWSGGGTSYADSVKGRFTISRDNAKNTVYFQMNSLKPEDTAVYYCAAYFRYSNYWSEYWGQGTQVTVSS | high polyreactivity
26 | QVQLVESRRGLVQAGGSLRLSCAASGRIFYRYALGWYRQAPGKEREFVAAISRSGGTTYYADSVKGRFTISRDNAKNTVYLQMNSLNPEDTAVYYCAAGGSFWYFSPRYGYWGQGTQVTVSS | high polyreactivity
27 | QVQLVESRRGLVQARGSLRLSCAASGITFRWYAMGWYRQAPGKERELVAAITTGGSTKYADSVKGRFTISRDNAKNTVYLQMNSLKPEDTAVYYCAARGRYAGGYWGQGTQVTVSS | high polyreactivity
28 | QVQLVESRVGLVQAGGSLRLSCAASGITFYGYAMGWYRQAPGKERELVAAITSGGSTYYADTVKGRFTISRDNAKNTVYFQMNSLKPEDTAVYYCAAYLRRAYVHSYERYYWGQGTQVTVSS | low polyreactivity
29 | QVQLVESRWRFVQAGGSLRLSCAASGSIFADYAMGWYRQAPGKERELVAAITFSGGSTYYADSVKGRFTISRDNAKNTVYLQMNSLKPEDTAVYYCAARWRYRYYSWGQGTQVTVSS | high polyreactivity
30 | QVQLVESSGGLVQAGGSLRLSCAASGRIFQAYAMGWYRQAPGKEREMVAAITGGGSTNYADSVKGRFTISRDNAKNTVYLQMNSLKPEDTAVYYCNAVTGTYGWGPQAREQEDYWGQGTQVTVSS | low polyreactivity
31 | QVQLVESSGGLVQAGGSLSLICAASVLIFNFYSMGWYRQAPGKERELVDAISWNAGSTYYADSVKGRFTISRDNAKNTVYLQMNSLKPEDTAVYYCAVLPGRYDKTASHYDYWGQGTQVTVSS | low polyreactivity
32 | QVQLVESVGCLVQAGGSLRLSCAASGFIFDYYAMGRYRHGPGKERELVAGISWSGGSTYYADSVKGRFTISSDNSKNTVYLQMNSLIPEDTAVYYCNAEDSVPFYLYYYWGQGSQVTVSS | low polyreactivity
33 | QVQLVESVGCLVQAGGSLRLSCAATVSIFDRYAMGWNRQPPGKESELVAAISKSGGRTYYADSVKGRFTISRDNAKNTVYLQMNSLKPEDSAVYDCAADPLLGYLSHYYWGQGTQVTVSS | high polyreactivity
34 | QVQLVESVGDLVQAGGSLRLSCAASGRNFPVYAMGWYRQAPGKERELVAAITFRSGSTYYADSVKGRFTISRDNAKNTVYLQMNSLKPEDTAVYYCAADFSVQYVGYSAIEGYWGQGTQVTVSS | high polyreactivity
35 | QVQLVESVGGLDQAGGRLRLSCAASGFTIRPYVRRAYRQAPGTERELVAGISTGGSTYYADSVKGRFTISRDNAQNTVYLQMNRLKPEDTAVYDCAKRGKQYRKMNYWGQGTQVTVSS | high polyreactivity
36 | QVQLVESVGGLDQAGGSLRLSCAASALIFPRYDMGSYRQAPGKERELDAAITSGGGTYNADSVKGRFTISRDNAKITVYLQMNSLKPEDTAVYYCAAGPVFGGGGYDYWGQGTQVTVSS | low polyreactivity
37 | QVQLVESVGGLDQAGGSLRLSCAASGSIFVGYAMGWYRQAPGKERELVAAITRSGVSTYYADSVKGRFTISRDNAKNTVYLQMNSLKPEDTAVYYCAADPTYRYWRVPWYEYDYWGQGTQVTVSS | low polyreactivity
38 | QVQLVESVGGLDQAGGSLRLSCAASGSTFGGYAMGWYRQAPGKERELVAAISSSGTSTYYADSVKGRFTISRDNAKNTVYLQMNSLKPEDNAVYYCATDFSFFSRFDYWGQGTQVTVSS | low polyreactivity
39 | QVQLVESVGGLDQAGGSLRLSCAASGSTFKRYVMGWYRQAPGKERELVAAITWSGTRTYYADSVKGRFTLSRDNAKNTVYLQMNSLKPEDTAVYYCAARLYGGYDWGQGTQVTVSS | high polyreactivity
40 | QVQLVESVGGLDQAGGSLRLSCPASGRTFGKYAMGWYRQSPGKERELVARISRRGGTTYYADSVKGRFTISRDNAKNTVYLQLNSLKPEDTAVYYCNARRRDYRHWYDYWGQGTQVTVSS | high polyreactivity
41 | QVQLVESVGGLDQARGSLRLSCAASGFIYRYYPMGWYRQSPGKERELVASIDWSGGNTYYADSVKGRFTISRDKAKYTVYLQMNSLKPEDTAVYYCNRRGMDWGLGTQVTVSS | low polyreactivity
42 | QVQLVESVGGLFQAGGSIRLSCAASGRTFFVYAMGWYRQAPGKERVLVAVISFTVDSTFYEDSVKGRFTISRDNAKNTVYLQMNSLKPEDTAVYYCAADVRRVFSKYSYYLYFDLDYWGQGTQVTVSS | low polyreactivity
43 | QVQLVESVGGLGQAGGSLRLSCASSGFTFARYAMAWYIQAPGKERELVAAISGSGSTYYADSVKGRFTISRDNAKNSVYLQMNSLKTEDTAVYYCNAGNFGRFGFWGQGTQVTVSS | high polyreactivity
